The values that follow come from US20220380475A1 (SORRISO PHARMACEUTICALS, published 2022).

Where two headings read alike, the source gives them in different places.

The target of experiment [1] is T1, recombinant soluble human IL-6R (human, UniProt P08887 20-365).
T1 sequence: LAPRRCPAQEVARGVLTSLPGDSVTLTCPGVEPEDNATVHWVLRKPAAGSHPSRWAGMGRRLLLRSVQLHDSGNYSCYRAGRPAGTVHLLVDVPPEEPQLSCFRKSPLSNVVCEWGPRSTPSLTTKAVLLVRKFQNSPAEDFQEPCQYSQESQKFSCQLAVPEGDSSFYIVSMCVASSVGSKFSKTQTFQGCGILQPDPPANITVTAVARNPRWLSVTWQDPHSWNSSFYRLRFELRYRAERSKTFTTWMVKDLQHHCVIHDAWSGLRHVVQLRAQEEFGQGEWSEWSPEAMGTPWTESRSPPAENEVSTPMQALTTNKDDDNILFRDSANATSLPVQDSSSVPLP
Kind of experiment: gp130 ELISA (competition), parallel human arm: 10 ng/mL human IL-6R, 50 ng/mL human IL-6. On the procedure:
(§1) The standard anti-cynomolgus monkey IL-6R gp130 ELISA assay detailed under ‘Potency, neutralisation and inhibition’ above was performed to assay the ICVDs in parallel for their ability to neutralise sIL6R in cynomolgous monkey serum and recombinant purified human sIL6R. Briefly, Maxisorp 96-well plates were coated overnight with 50 μl/well 1 μg/ml gp130 then blocked. ICVDs were serially diluted and mixed 1:1 with 200 ng/ml recombinant human IL-6, then 1:1 with either 20 ng/ml recombinant human sIL-6R or a 5-fold dilution of cynomolgus monkey serum and incubated for 1 hour to allow binding before adding to the gp130-coated plates. Bound cynomolgus monkey IL-6R was detected with 50 μl/well either 0.25 μg/ml (for human IL-6R) or 0.5 μg/ml (for monkey serum) BAF227 and then 50 μl/well 1/1000 Extravidin-HRP and the level of neutralisation by the ICVD of IL-6R binding to IL-6/gp130 was determined

Experiment [2] addresses cynomolgus monkey soluble IL-6R (from cynomolgus monkey serum) (cynomolgus monkey). In words: ratio of gp130 ELISA IC50s on human and cynomolgus sIL-6R.
Experiment [3] has the same target. In words: anti-cynomolgus IL-6R gp130 ELISA (competition): 10x diluted cynomolgus serum, 50 ng/mL human IL-6, coated human gp130.
The target of experiment [4] is T2, membrane-bound human IL-6R on TF-1 cells (human, UniProt P08887 20-468).
T2 sequence: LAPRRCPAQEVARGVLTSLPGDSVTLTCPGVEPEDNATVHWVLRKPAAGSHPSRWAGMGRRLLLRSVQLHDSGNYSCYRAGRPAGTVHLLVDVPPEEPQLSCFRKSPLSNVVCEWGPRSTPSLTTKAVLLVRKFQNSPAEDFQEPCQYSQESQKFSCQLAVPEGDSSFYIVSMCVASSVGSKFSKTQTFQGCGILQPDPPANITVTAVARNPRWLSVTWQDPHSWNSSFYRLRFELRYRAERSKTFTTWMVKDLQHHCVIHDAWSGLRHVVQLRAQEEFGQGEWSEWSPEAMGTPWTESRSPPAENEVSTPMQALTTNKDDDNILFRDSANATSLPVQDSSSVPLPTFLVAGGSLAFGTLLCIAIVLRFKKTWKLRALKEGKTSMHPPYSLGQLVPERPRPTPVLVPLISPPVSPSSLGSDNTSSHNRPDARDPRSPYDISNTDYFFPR
In words: cell-based or functional assay.

For experiment [5], the target named is T3, cynomolgus monkey soluble IL-6R (from cynomolgus monkey serum) (cynomolgus monkey, UniProt P08887 20-365 (human entry)).
T3 construct: Natural soluble IL-6R present in diluted normal cynomolgus monkey serum; also called cyno IL6R; cynomolgous sIL-6R
T3 chain: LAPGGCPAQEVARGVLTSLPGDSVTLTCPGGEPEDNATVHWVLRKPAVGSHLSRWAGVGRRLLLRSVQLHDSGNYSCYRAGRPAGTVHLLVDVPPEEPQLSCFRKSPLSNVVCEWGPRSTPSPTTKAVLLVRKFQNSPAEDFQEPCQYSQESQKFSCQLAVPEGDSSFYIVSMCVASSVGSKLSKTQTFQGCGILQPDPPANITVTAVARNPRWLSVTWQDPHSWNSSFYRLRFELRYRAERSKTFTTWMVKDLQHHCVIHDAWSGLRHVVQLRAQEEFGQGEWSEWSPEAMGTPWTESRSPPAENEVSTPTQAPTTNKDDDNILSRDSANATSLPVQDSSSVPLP
In words: ratio of gp130 ELISA IC50s on human and cynomolgus sIL-6R. As to the method:
as §1
Background: In an ELISA, binding on a coated surface is turned into a signal by an enzyme label.

Experiment [6] has as its target T2, membrane-bound human IL-6R on TF-1 cells. In words: cell-based or functional assay. This is another data set of the same source.
Experiment [7] addresses T3, cynomolgus monkey soluble IL-6R (from …). In words: anti-cynomolgus IL-6R gp130 ELISA (competition): 10x diluted cynomolgus serum, 50 ng/mL human IL-6, coated human gp130. On the procedure: as §1
The target of experiment [8] is T2, membrane-bound human IL-6R on TF-1 cells. In words: cell-based or functional assay. This is another data set of the same source.
In experiment [9] the target is T1, recombinant soluble human IL-6R. Kind of experiment: standard gp130 ELISA (competition), Experiment 2; 10 ng/mL IL-6R, 50 ng/mL IL-6. On the procedure:
The inhibitory potency and efficacy (maximal inhibition) of the E. coli-produced 5G9 derivatives were confirmed in vitro in the gp130 ELISA, TF-1 cell and M1 cell functional assays measuring responses mediated via human IL-6R. The gp130 assays follow the standard protocol with a final assay concentration of 10 ng/mL IL-6R and 50 ng/mL IL-6.

The target is the same in experiment [10]. In words: gp130 ELISA (competition): inhibition of human sIL-6R/IL-6 complex binding to coated gp130; 20 ng/mL IL6R, 100 ng/mL IL6. As to the method:
(§2) Briefly, Maxisorp 96-well plates were coated overnight with 50 μl/well 0.5 μg/ml gp130 then blocked. ICVDs were serially diluted and mixed 1:1 with 100 ng/ml recombinant human IL-6 then 1:1 with 40 ng/ml recombinant human sIL-6R, and incubated for 1 hour to allow binding before adding to the gp130-coated plates. Bound IL-6R was detected with 50 μl/well 0.250 μg/ml BAF227 and then 50 μl/well 1/1000 diluted Extravidin-HRP and the level of neutralisation by the ICVD of IL-6R binding to IL-6/gp130 was determined.
Dose response curves were obtained (dose response curves of particular ICVDs illustrated in FIG. 1). […] This was confirmed with curve-fitting software (Graphpad Prism), which fitted 4 parameter curves to the data and calculated the IC50s (Table 4.1, below).

Experiment [11] has as its target T2, membrane-bound human IL-6R on TF-1 cells. Kind of experiment: cell-based or functional assay. The source holds these as a separate data set.
The target of experiment [12] is T1, recombinant soluble human IL-6R. Kind of experiment: gp130 ELISA (competition), second assay, 10 min pre-incubation; 20 ng/mL IL6R, 100 ng/mL IL6. On the procedure:
as §2
A separate assay was performed on 21E6 and 7F6 using the same protocol as above with the exception that the ICVD/IL-6R/IL-6 where only incubated with shaking for 10 min before being added to the assay plates.

For experiment [13] the target is unchanged. Kind of experiment: standard gp130 ELISA (competition); column 'Potency'.
For experiment [14] the target is unchanged. In words: standard gp130 ELISA (competition); 10 ng/mL IL-6R, 50 ng/mL IL-6; column 'Potency'. As to the method: Mutant 5G9 sequences were produced and tested for their potency in the standard gp130 ELISA. The standard gp130 ELISA has a final assay concentration of 10 ng/mL IL-6R and 50 ng/mL IL-6.
For experiment [15] the target is unchanged. Kind of experiment: standard gp130 ELISA (competition); reference 5G9.
Experiment [16] has the same target. In words: cell-based or functional assay.
Experiment [17] shares this target. In words: Biacore (SPR): ICVD fixed to the sensor, soluble human IL-6R flowed over. The text has this:
The binding kinetics of the trans-selective ID-123V (E. coli produced version of ID-142V) and the cis/trans potent ID-112V (E. coli produced version of ID-144V, but for ID-112V lacking N82Y relative to ID-144V) were compared against tocilizumab in a Biacore study. The ICVDs were fixed to the Biacore sensor plate and soluble human IL-6R was flowed over the plate to detect binding.

For the molecule tocilizumab Fab, the half-maximal inhibitory concentration (IC50) (in general, the concentration needed to halve the response being measured) in [1] was 0.704 nM; in experiment [3] it was 1.13 nM. For the same molecule, the Ratio of human IC50 to cynomolgus IC50 in experiment [2] came out at 0.6. The IC50 of inhibition of IL-6-induced TF-1 cell proliferation in experiment [4] was 15.9 nM.

B1: 20A11 (prior art comparative example) (VHH)
VHH: EVQLVESGGGLVQPGGSLRLSCAASGSVFKINVMAWYRQAPGKGRELVAGIISGGSTSYADSVKGRFTISRDNAKNTLYLQMNSLRPEDTAVYYCAFITTESDYDLGRRYWGQGTLVTVSS
notes: Prior art anti-IL-6R polypeptide disclosed in WO 2010/115998; also called PMP20A11
With B1, the IC50 is 0.24 nM in experiment [1] and 0.106 nM in experiment [7]. The “Ratio Cyno IC50/human IC50 (title: human IC50 divided by cynomolgous IC50)” value in experiment [5] amounted to 2.3. For the same molecule, in [6], the “TF-1 cell assay EC50 (5 ng/ml IL-6)” value was determined as 0.56 nM. In addition, the “IC50 of inhibition of IL-6-induced TF-1 cell proliferation” value in [8] was determined as 1.1 nM. The EC50 (in general, the concentration giving half of the maximal effect) in [9] came to 0.22 nM.

B2: 7F6 (VHH)
VHH: EVQLVESGGGLVQAGGSTRLTCLASGSISSINVIGWYRQAPGKQRELVAMIGRGEGANYGDFAKGRFTISRDNSKNTVYLQMNSLKPEDTAVYYCYADYEDRDSPFNGSWGQGTQVTVSS
notes: also called VIL-7F6; 'Wild type' 7F6; not shown: C-terminal Flag and 6xHis tags from vector pMEK222
As for B2, the IC50 in experiment [1] was found to be 0.424 nM; in [10], 0.11 nM; in experiment [12], 0.16 nM; in experiment [7], 0.342 nM; in experiment [13], 0.15 nM. In addition, in [5], the “Ratio Cyno IC50/human IC50 (title: human IC50 divided by cynomolgous IC50)” value turned out to be 1.2. Further, the “IC50 in TF1 assay (separate assay, raised background)” value in experiment [11] stood at 3 nM. For the same molecule, the “IC50 of inhibition of IL-6-induced TF-1 cell proliferation” value in experiment [8] turned out to be 0.5 nM.

B3: ID-57V (VHH)
VHH: EVQLVESGGGLVQAGGSTRLTCKASGSIININSINVMAWYRQAPGKQRELVAIIGKGGGTNYADFVKGRFTISRDAAKNTVNLQMNSLKPEDTAVYYCYADYEDRDSPFNASWGQGTQVTVSS
notes: Mutant of 5G9; also called 5G9 + F29I; not shown: C-terminal Flag- and His-tags of E. coli constructs
Consider B3, for which the IC50 in [14] amounted to 0.31 nM. In addition, the “fold increase of IC50 against 5G9” value in experiment [15] was approximately 3 fold.

B4: ID-123V (VHH)
VHH: EVQLVESGGGLVQAGGSTRLTCKASGSISNINSINVMAWYRQAPGKGRELVAIIGKGGGTNYADFVKGRFTISRDAAKNTVYLQMNSLRPEDTAVYYCYADYEDHDSPHNASWGQGTQVTVSS
notes: E. coli-produced trans-selective 5G9 derivative; E. coli version of ID-142V (lacks E1D); also called 5G9 + F29S, Q47G, N82Y, K89R, R105H, F109H; not shown: C-terminal FLAG-6xHis
As to B4, the “TF-1 cell assay EC50 (5 ng/ml IL-6)” value in experiment [6] stood at 4.5 nM. Further, the “M1 cellular assay EC50 (20 ng/ml IL-6R, 100 ng/ml IL-6)” value in experiment [16] stood at 4.2 nM. In [17], the equilibrium dissociation constant (Kd) (as a rule, a measure of binding affinity in units of concentration) came out at 1.1 nM. Besides, the EC50 in experiment [9] amounted to 0.498 nM.

B5: ID-58V (VHH)
VHH: EVQLVESGGGLVQAGGSTRLTCKASGSIFNINSINVMAWYRQAPGKQRELVAIIGKGGGTNYADVVKGRFTISRDAAKNTVNLQMNSLKPEDTAVYYCYADYEDRDSPFNASWGQGTQVTVSS
notes: Mutant of 5G9; also called 5G9 + F65V; not shown: C-terminal Flag- and His-tags of E. coli constructs
As for B5, in experiment [14], the IC50 was 0.36 nM. Also, the “fold increase of IC50 against 5G9” value in experiment [15] is approximately 3 fold.

B6: ID-122V (VHH)
VHH: EVQLVESGGGLVQAGGSTRLTCKASGSISNINSINVMAWYRQAPGKGRELVAIIGKGGGTNYADFVKGRFTISRDAAKNTVNLQMNSLRPEDTAVYYCYADYEDHDSPHNASWGQGTQVTVSS
notes: E. coli-produced trans-selective 5G9 derivative; also called 5G9 + F29S, Q47G, K89R, R105H, F109H; not shown: C-terminal FLAG-6xHis
As for B6, the “M1 cellular assay EC50 (20 ng/ml IL-6R, 100 ng/ml IL-6)” value in experiment [16] is 3.96 nM. Also, the EC50 in [9] turned out to be 0.489 nM.
